# Results from patent US20260152567A1 (CSPC MEGALITH BIOPHARMACEUTICAL, published 2026).
# What was measured:
# [1] = target: T1, human CD73 on the cell surface (MDA-MB-231 and SKOV3 tumor cells) (human, UniProt P21589 27-549); experiment: flow cytometry on SK-OV-3 cells
# T1 construct: whole, on cells; also called cell surface CD73; CD73 on the surface of human tumor cells
# T1 sequence (looked up): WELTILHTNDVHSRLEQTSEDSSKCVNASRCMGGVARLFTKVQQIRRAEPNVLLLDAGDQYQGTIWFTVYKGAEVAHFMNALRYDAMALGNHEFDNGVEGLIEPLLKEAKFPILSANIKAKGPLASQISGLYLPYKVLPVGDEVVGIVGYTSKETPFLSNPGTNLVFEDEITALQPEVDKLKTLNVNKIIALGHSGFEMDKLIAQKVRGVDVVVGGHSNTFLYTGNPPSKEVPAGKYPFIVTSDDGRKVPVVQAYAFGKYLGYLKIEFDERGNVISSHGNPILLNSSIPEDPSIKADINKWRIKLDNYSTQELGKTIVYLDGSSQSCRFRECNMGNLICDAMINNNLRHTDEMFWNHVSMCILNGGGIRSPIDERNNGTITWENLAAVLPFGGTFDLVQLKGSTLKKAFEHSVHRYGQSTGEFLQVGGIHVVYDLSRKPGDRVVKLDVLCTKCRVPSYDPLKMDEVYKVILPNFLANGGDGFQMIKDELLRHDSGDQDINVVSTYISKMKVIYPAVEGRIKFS
# Protocol: (§1) In this example, the exemplary antibodies of the present application were compared with anti-CD73 antibodies described in other patent applications. Antibodies MEDI9447 and Hu101-28 (with CDR sequences from PCT patent applications WO 2016/075099 and WO 2018/137598, respectively) were cloned into eukaryotic expression vectors containing the hIgG1-kappa constant region. The binding ability of the humanized antibodies Hab7C3C2.5 and Hab1F2F9.15 to cell surface CD73 was assessed using tumor cell lines MDA-MB-231 and SKOV3 which endogenously express human CD73 on the cell surface. The cells were seeded in a 96-well plate at a density of 2×10⁶ cells/mL, with 100 μL per well. 4-fold gradient dilutions (0-100 nM) of the antibodies were added, and the mixture was incubated at 4° C. for 1 h. A goat anti-human secondary antibody was added, and the mixture was incubated at 4° C. in the dark for 50 min for labeling. The fluorescence intensity of the cells was then measured by a flow cytometer.
# [2] = target: T1, human CD73 on the cell surface …; experiment: flow cytometry on MDA-MB-231 cells
# Protocol: as §1
# [3] = target: T2, recombinant human CD73 protein (human, UniProt P21589 27-547); experiment: BLI (Fortebio), human CD73 on HIS1K biosensors, antibody as analyte
# T2 construct: Bought soluble protein; The background says that CD73 forms a homodimer; also called soluble CD73; free CD73 protein
# T2 sequence (looked up): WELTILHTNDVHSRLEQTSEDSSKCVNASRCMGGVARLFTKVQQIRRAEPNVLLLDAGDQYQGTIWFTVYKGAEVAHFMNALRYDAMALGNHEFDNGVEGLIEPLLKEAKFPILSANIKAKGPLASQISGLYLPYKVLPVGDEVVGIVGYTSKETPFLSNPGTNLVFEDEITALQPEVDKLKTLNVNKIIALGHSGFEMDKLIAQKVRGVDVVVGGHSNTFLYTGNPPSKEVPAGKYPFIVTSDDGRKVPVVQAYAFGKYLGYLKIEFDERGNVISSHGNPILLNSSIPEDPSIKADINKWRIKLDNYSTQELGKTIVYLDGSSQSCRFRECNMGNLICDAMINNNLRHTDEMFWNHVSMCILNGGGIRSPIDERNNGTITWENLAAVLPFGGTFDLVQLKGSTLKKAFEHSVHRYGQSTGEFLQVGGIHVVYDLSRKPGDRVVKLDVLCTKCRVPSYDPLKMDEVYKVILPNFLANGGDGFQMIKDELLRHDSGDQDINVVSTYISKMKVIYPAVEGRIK
# Protocol: The humanized antibody VH and VL were separately constructed into eukaryotic expression vectors containing the hIgG1-kappa constant region with L234A, L235A, P329A and P331S mutations (abbreviated as hIgG1 in the present application). The affinity of all humanized antibodies was assayed in this example. Human CD73 protein was immobilized onto HIS1K biosensors to achieve a binding response threshold of 0.3 nm. After a 120-second baseline step, the sensors were separately immersed in anti-CD73 antibody analytes diluted in a gradient with a 0.02% PBST buffer (each antibody was diluted in a 2-fold gradient with an initial concentration of 25 nM, resulting in 7 concentration gradients). The times for the ligand-analyte binding and dissociation were 120 s and 300 s, respectively. The data of the antigen-antibody affinity were calculated by regression according to the binding curves using an analysis software.
# [4] = target: T3, cynomolgus monkey CD73 protein (cynomolgus monkey, UniProt A0A2K5V5U7 27-547); experiment: BLI (Fortebio), cynomolgus CD73 on HIS1K biosensors, antibody as analyte
# T3 construct: construct not described
# T3 sequence: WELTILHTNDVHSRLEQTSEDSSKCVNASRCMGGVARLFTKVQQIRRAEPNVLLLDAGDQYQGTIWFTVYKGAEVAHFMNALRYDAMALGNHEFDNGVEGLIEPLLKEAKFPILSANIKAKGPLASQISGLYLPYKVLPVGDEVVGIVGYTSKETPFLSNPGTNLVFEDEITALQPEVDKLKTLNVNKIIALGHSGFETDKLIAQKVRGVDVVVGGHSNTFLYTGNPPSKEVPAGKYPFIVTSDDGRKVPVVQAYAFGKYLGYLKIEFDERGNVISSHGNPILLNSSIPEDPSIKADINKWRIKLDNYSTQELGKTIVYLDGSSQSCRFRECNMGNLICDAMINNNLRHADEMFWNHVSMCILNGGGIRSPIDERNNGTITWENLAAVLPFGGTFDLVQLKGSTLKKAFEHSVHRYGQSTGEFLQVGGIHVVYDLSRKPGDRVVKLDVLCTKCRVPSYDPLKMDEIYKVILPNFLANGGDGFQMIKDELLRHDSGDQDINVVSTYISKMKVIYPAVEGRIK
# Protocol: In this example, the cross-binding ability of the exemplary humanized anti-CD73 antibodies of the present application to cynomolgus monkey CD73 was assayed by a Fortebio experiment. The specific implementation steps included immobilizing the cynomolgus monkey CD73 protein onto HIS1K biosensors. […] The times for the ligand-analyte binding and dissociation were 120 s and 300 s, respectively. The data of the antigen-antibody affinity were calculated by regression according to the binding curves using an analysis software.
# [5] = target: T2, recombinant human CD73 protein; experiment: ELISA, plate coated with recombinant human CD73 at 1 µg/mL
# Protocol: The obtained eukaryotic expression vectors were transiently transferred into HEK293 cells, and the cells were then cultured for 6 days. The culture supernatants were harvested and purified by a ProteinA column to obtain the target antibodies, which were named 7C3C2-hIgG1 and 1F2F9-hIgG1, respectively. The affinity of the antibodies for the recombinant human CD73 protein (as described in Example 1) was determined using ELISA method. A elisa plate was coated with the recombinant human CD73 protein at a concentration of 1 μg/mL and washed 3 times with a PBST buffer. Then, the plate was blocked with a PBS buffer containing 2% BSA at 37° C. for 2 h and washed 3 times with a PBST buffer. 5-fold gradient dilutions (0-133.3 nM) of the test antibodies were added, and the mixture was incubated at 37° C. for 2 h. The plate was further washed 3 times with a PBST buffer. A horseradish peroxidase-labeled secondary antibody was added, and the mixture was incubated at 37° C. for 1 h. The plate was then washed 3 times with a PBST buffer. Chromogenic reaction was performed, and the absorbance values were read after the reaction was terminated.
binder,measurement,setting,value
"MEDI9447 (antibody, V domains shown) VH: EVQLLESGGGLVQPGGSLRLSCAASGFTFSSYAYSWVRQAPGKGLEWVSAISGSGGRTYYADSVKGRFTISRDNSKNTLYLQMNSLRAEDTAVYYCARLGYGRVDEWGRGTLVTVSS VL: QSVLTQPPSASGTPGQRVTISCSGSLSNIGRNPVNWYQQLPGTAPKLLIYLDNLRLSGVPDRFSGSKSGTSASLAISGLQSEDEADYYCATWDDSHPGWTFGGGTKLTVLG",EC50,[1],0.17 nM
same,EC50,[2],0.49 nM
"Hab7C3C2.9 (antibody, human IgG1, kappa, L234A L235A, V domains shown, Humanized 7C3C2; also called Huab7C3C.9) VH: QVQLVQSGAEVKKPGASVKVSCKASGYTFTSYDINWVRQATGQGLEWMGWIYPRDGFTKYAQKFQGRVTITVNTSISTAYMELSSLRSEDTAVYYCARKEGYRGDWYFDVWGQGTTVTVSS VL: DIQMTQSPSSLSASVGDRVTITCRASGNVHNYLAWYQQKPGKAPKLLLYNAKTLASGVPSRFSGSGSGTDYTLTISSLQPEDFATYYCQHFWSTPWTFGGGTELEIKR",Kd,[3],1.03 nM
same,koff,[3],0.00381 s⁻¹
same,kon,[3],3.7e+06 M⁻¹ s⁻¹
same,Kd,[4],0.852 nM
same,koff,[4],0.00388 s⁻¹
same,kon,[4],4.56e+06 M⁻¹ s⁻¹
"1F2F9-hIgG1 (antibody, V domains shown, Human-mouse chimeric antibody, expressed in HEK293, Protein A purified; also called 1F2F9 chimeric antibody) VH: QVQLQQPGTELVKPGASVKLSCKASGYTFTSYWMHWVKQRPGHGLEWIGNINPSNGGTKYNEKFKSKATLTVDKSSSTAYLQLSSLTSEDSAVYYCARRDYGSPSYWGQGTLVTVSA VL: DIKMTQSPSSIYASLGERVTITCKASQDINSYLTWFQQKVGKSPKTLIYRTNILLDGVPSRFSGSGSGQDYSLTISSLDYEDMGIYHCLQYHEFPVTFGAGTKLELKR",EC50,[5],0.028 nM
"Hab1F2F9.12 (antibody, human IgG1, kappa, L234A L235A, V domains shown, Humanized 1F2F9; also called Huab1F2F9.12) VH: QVQLVQSGAEVKKPGASVKVSCKASGYTFTSYWMHWVRQAPGQRLEWMGNINPSNGGTKYNEKFQGRVTITVDTSASTAYMELSSLRSEDTAVYYCARRDYGSPSYWGQGTTVTVSS VL: DIQMTQSPSSLSASVGDRVTITCKASQDINSYLTWFQQKPGKAPKSLIYRTNILLDGVPSRFSGSGSGTDYTLTISSLQPEDFATYYCLQYHEFPVTFGGGTKLEIKR",Kd,[3],0.72 nM
same,koff,[3],0.00133 s⁻¹
same,kon,[3],1.85e+06 M⁻¹ s⁻¹
same,Kd,[4],0.681 nM
same,koff,[4],0.00152 s⁻¹
same,kon,[4],2.22e+06 M⁻¹ s⁻¹
"7C3C2-hIgG1 (antibody, V domains shown, Human-mouse chimeric antibody, expressed in HEK293, Protein A purified; also called 7C3C2 chimeric antibody) VH: QVQLQQSGPELVKPGASVKLSCKASGYTFTSYDINWVKQRPGQGLEWIGWIYPRDGFTKYNEKFKGKATLTVDTSSSTAYMELHSLTSEDSAVYFCARKEGYRGDWYFDVWGTGTTVTVSS VL: DIQMTQSPASLSASVGETVTITCRASGNVHNYLAWYQQKQGKSPQLLVYNAKTLADGVPSRFSGSGSGTQYSLKINSLQPEDFGSYYCQHFWSTPWTFGGGTELEIKR",EC50,[5],0.017 nM
